Laboratory results taken from the supplement of paper PMC11316812.
± gives the standard deviation of the averaged measurements.

Legend:
MCF7 = assay: percentage of EdU-negative (G0-arrested) nuclei per well, 72 h; higher = more G0 arrest; settings: reference: sequence is the full UniProt precursor, the tested protein was the secreted form or ectodomain
hTERT-HMEC = assay: as above; settings: reference: sequence is the full UniProt precursor, the tested protein was the secreted form or ectodomain
[1] = protein concentration 0.0225 µM
[2] = protein concentration 0.0357143 µM
[3] = protein concentration 0.357143 µM
[4] = protein concentration 0.0165575 µM
[5] = protein concentration 0.165575 µM
[6] = protein concentration 0.02657 µM
[7] = protein concentration 0.2657 µM
[8] = protein concentration 0.02025 µM
[9] = protein concentration 0.2025 µM
[10] = protein concentration 0.02823 µM
[11] = protein concentration 0.2823 µM
[12] = protein concentration 0.02225 µM
[13] = protein concentration 0.2225 µM
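Further: secreted proteins added to cultured cells, EdU pulse at the end, nuclei found by Hoechst imaging, EdU status from nuclear versus surrounding ring intensity ratio, PBS as neutral control.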

Sequence: MPEEGSGCSVRRRPYGCVLRAALVPLVAGLVICLVVCIQRFAQAQQQLPLESLGWDVAELQLNHTGPQQDPRLYWQGGPALGRSFLHGPELDKGQLRIHRDGIYMVHIQVTLAICSSTTASRHHPTTLAVGICSPASRSISLLRLSFHQGCTIASQRLTPLARGDTLCTNLTGTLLPSRNTDETFFGVQWVRP
- percentage of EdU-negative (MCF7; [1]): 26.5 ± 2.2%
- percentage of EdU-negative (MCF7; protein concentration 0.225 µM): 26.6 ± 0.44%
- percentage of EdU-negative (hTERT-HMEC; [1]): 5.04 ± 0.08%
- percentage of EdU-negative (hTERT-HMEC; protein concentration 0.225 µM): 5.11 ± 0.64%

Sequence: MKPLLVVFVFLFLWDPVLAGINSLSSEMHKKCYKNGICRLECYESEMLVAYCMFQLECCVKGNPAP [Q4QY38]
- percentage of EdU-negative (MCF7; [1]): 26.33 ± 0.082%
- percentage of EdU-negative (MCF7; protein concentration 0.225 µM): 27 ± 0.67%
- percentage of EdU-negative (hTERT-HMEC; [1]): 4.56 ± 0.45%
- percentage of EdU-negative (hTERT-HMEC; protein concentration 0.225 µM): 5.39 ± 1.7%

Sequence: MVPKLFTSQICLLLLLGLLAVEGSLHVKPPQFTWAQWFETQHINMTSQQCTNAMQVINNYQRRCKNQNTFLLTTFANVVNVCGNPNMTCPSNKTRKNCHHSGSQVPLIHCNLTTPSPQNISNCRYAQTPANMFYIVACDNRDQRRDPPQYPVVPVHLDRII
- percentage of EdU-negative (MCF7; [2]): 24.9 ± 1.8%
- percentage of EdU-negative (MCF7; [3]): 27 ± 0.65%
- percentage of EdU-negative (hTERT-HMEC; [2]): 4.435 ± 0.01%
- percentage of EdU-negative (hTERT-HMEC; [3]): 5.25 ± 0.32%

Sequence: MGLLSAPPCTQRITWKGLLLTASLLNFWNPPTTAQVTIEAQPTKVSEGKDVLLLVHNLPQNLTGYIWYKGQIRDLYHYITSYVVDGQIIIYGPAYSGRETIYSNASLLIQNVTQEDAGSYTLHIIMGGDENRGVTGHFTFTLYLETPKPSISSSKLNPREAMEAVSLTCDPETPDASYLWWMNGQSLPMSHRLQLSETNRTLFLLGVTKYTAGPYECEIRNPVSASRSDPFTLNLLPKLPKPYITINNLKPRENKDVLNFTCEPKSENYTYIWWLNGQSLPVSPRVKRPIENRILILPSVTRNETGPYQCEIRDQYGGIRSYPVTLNVLYGPDLPRIYPSFTYYRSGEVLYLSCSADSNPPAQYSWTINGKFQLSGQKLFIPQITTKHSGLYACSVRNSATGKESSKSMTVKVSGKRIPVSLAIGI [Q9UQ74]
- percentage of EdU-negative (MCF7; [4]): 26.7 ± 1%
- percentage of EdU-negative (MCF7; [5]): 31.5 ± 1.5%
- percentage of EdU-negative (hTERT-HMEC; [4]): 4.16 ± 0.38%
- percentage of EdU-negative (hTERT-HMEC; [5]): 6.44 ± 0.53%

Sequence: MFTIKLLLFIVPLVISSRIDQDNSSFDSLSPEPKSRFAMLDDVKILANGLLQLGHGLKDFVHKTKGQINDIFQKLNIFDQSFYDLSLQTSEIKEEEKELRRTTYKLQVKNEEVKNMSLELNSKLESLLEEKILLQQKVKYLEEQLTNLIQNQPETPEHPEVTSLKTFVEKQDNSIKDLLQTVEDQYKQLNQQHSQIKEIENQLRRTSIQEPTEISLSSKPRAPRTTPFLQLNEIRNVKHDGIPAECTTIYNRGEHTSGMYAIRPSNSQVFHVYCDVISGSPWTLIQHRIDGSQNFNETWENYKYGFGRLDGEFWLGLEKIYSIVKQSNYVLRIELEDWKDNKHYIEYSFYLGNHETNYTLHLVAITGNVPNAIPENKDLVFSTWDHKAKGHFNCPEGYSGGWWWHDECGENNLNGKYNKPRAKSKPERRRGLSWKSQNGRLYSIKSTKMLIHPTDSESFE [Q9Y5C1]
- percentage of EdU-negative (MCF7; [6]): 25.5 ± 1.9%
- percentage of EdU-negative (MCF7; [7]): 25.9 ± 2.1%
- percentage of EdU-negative (hTERT-HMEC; [6]): 4.63 ± 0.83%
- percentage of EdU-negative (hTERT-HMEC; [7]): 6.34 ± 0.5%

Sequence: MVRLAAELLLLLGLLLLTLHITVLRGSGAADGPDAAAGNASQAQLQNNLNVGSDTTSETSFSLSKEAPREHLDHQAAHQPFPRPRFRQETGHPSLQRDFPRSFLLDLPNFPDLSKADINGQNPNIQVTIEVVDGPDSEADKDQHPENKPSWSVPSPDWRAWWQRSLSLARANSGDQDYKYDSTSDDSNFLNPPRGWDHTAPGHRTFETKDQPEYDSTDGEGDWSLWSVCSVTCGNGNQKRTRSCGYACTATESRTCDRPNCPGIEDTFRTAATEVSLLAGSEEFNATKLFEVDTDSCERWMSCKSEFLKKYMHKVMNDLPSCPCSYPTEVAYSTADIFDRIKRKDFRWKDASGPKEKLEIYKPTARYCIRSMLSLESTTLAAQHCCYGDNMQLITRGKGAGTPNLISTEFSAELHYKVDVLPWIICKGDWSRYNEARPPNNGQKCTESPSDEDYIKQFQEAREY [B1AKI9]
- percentage of EdU-negative (MCF7; [8]): 25.3 ± 2.1%
- percentage of EdU-negative (MCF7; [9]): 24.1 ± 0.87%
- percentage of EdU-negative (hTERT-HMEC; [8]): 4.82 ± 0.37%
- percentage of EdU-negative (hTERT-HMEC; [9]): 5.13 ± 0.59%

Sequence: MERASCLLLLLLPLVHVSATTPEPCELDDEDFRCVCNFSEPQPDWSEAFQCVSAVEVEIHAGGLNLEPFLKRVDADADPRQYADTVKALRVRRLTVGAAQVPAQLLVGALRVLAYSRLKELTLEDLKITGTMPPLPLEATGLALSSLRLRNVSWATGRSWLAELQQWLKPGLKVLSIAQAHSPAFSCEQVRAFPALTSLDLSDNPGLGERGLMAALCPHKFPAIQNLALRNTGMETPTGVCAALAAAGVQPHSLDLSHNSLRATVNPSAPRCMWSSALNSLNLSFAGLEQVPKGLPAKLRVLDLSCNRLNRAPQPDELPEVDNLTLDGNPFLVPGTALPHEGSMNSGVVPACARSTLSVGVSGTLVLLQGARGFA
- percentage of EdU-negative (MCF7; [10]): 26.8 ± 1.2%
- percentage of EdU-negative (MCF7; [11]): 27.2 ± 0.7%
- percentage of EdU-negative (hTERT-HMEC; [10]): 4.9 ± 0.54%
- percentage of EdU-negative (hTERT-HMEC; [11]): 8.12 ± 1.2%

Sequence: MPRRSLHAAAVLLLVILKEQPSSPAPVNGSKWTYFGPDGENSWSKKYPSCGGLLQSPIDLHSDILQYDASLTPLEFQGYNLSANKQFLLTNNGHSVKLNLPSDMHIQGLQSRYSATQLHLHWGNPNDPHGSEHTVSGQHFAAELHIVHYNSDLYPDASTASNKSEGLAVLAVLIEMGSFNPSYDKIFSHLQHVKYKGQEAFVPGFNIEELLPERTAEYYRYRGSLTTPPCNPTVLWTVFRNPVQISQEQLLALETALYCTHMDDPSPREMINNFRQVQKFDERLVYTSFSQVQVCTAAGLSLGIILSLALAGILGICIVVVVSIWLFRRKSIKKGDNKGVIYKPATKMETEAHA
- percentage of EdU-negative (MCF7; [1]): 26 ± 0.83%
- percentage of EdU-negative (MCF7; protein concentration 0.225 µM): 25.7 ± 0.64%
- percentage of EdU-negative (hTERT-HMEC; [1]): 5.44 ± 1.7%
- percentage of EdU-negative (hTERT-HMEC; protein concentration 0.225 µM): 5.5 ± 1.2%

Sequence: MMLRVLVGAVLPAMLLAAPPPINKLALFPDKSAWCEAKNITQIVGHSGCEAKSIQNRACLGQCFSYSVPNTFPQSTESLVHCDSCMPAQSMWEIVTLECPGHEEVPRVDKLVEKILHCSCQACGKEPSHEGLSVYVQGEDGPGSQPGTHPHPHPHPHPGGQTPEPEDPPGAPHTEEEGAED
- percentage of EdU-negative (MCF7; [1]): 25.6 ± 1.4%
- percentage of EdU-negative (MCF7; protein concentration 0.225 µM): 24.7 ± 0.79%
- percentage of EdU-negative (hTERT-HMEC; [1]): 5.79 ± 0.84%
- percentage of EdU-negative (hTERT-HMEC; protein concentration 0.225 µM): 5.88 ± 0.42%

Sequence: MGLGPVFLLLAGIFPFAPPGAAAEPHSLRYNLTVLSWDGSVQSGFLTEVHLDGQPFLRCDRQKCRAKPQGQWAEDVLGNKTWDRETRDLTGNGKDLRMTLAHIKDQKEGLHSLQEIRVCEIHEDNSTRSSQHFYYDGELFLSQNLETKEWTMPQSSRAQTLAMNVRNFLKEDAMKTKTHYHAMHADCLQELRRYLKSGVVLRRTVPPMVNVTRSEASEGNITVTCRASGFYPWNITLSWRQDGVSLSHDTQQWGDVLPDGNGTYQTWVATRICQGEEQRFTCYMEHSGNHSTHPVPSGKVLVLQSHWQTFHVSAVAAAAIFVIIIFYVRCCKKKTSAAEGPELVSLQVLDQHPVGTSDHRDATQLGFQPLMSDLGSTGSTEGA
- percentage of EdU-negative (MCF7; [12]): 24.7 ± 0.99%
- percentage of EdU-negative (MCF7; [13]): 26.3 ± 1.6%
- percentage of EdU-negative (hTERT-HMEC; [12]): 5.41 ± 0.075%
- percentage of EdU-negative (hTERT-HMEC; [13]): 6.78 ± 1.8%

Sequence: MKLPLLLALLFGAVSALHLRSETSTFETPLGAKTLPEDEETPEQEMEETPCRELEEEEEWGSGSEDASKKDGAVESISVPDMVDKNLTCPEEEDTVKVVGIPGCQTCRYLLVRSLQTFSQAWFTCRRCYRGNLVSIHNFNINYRIQCSVSALNQGQVWIGGRITGSGRCRRFQWVDGSRWNFAYWAAHQPWSRGGHCVALCTRGGHWRRAHCLRRLPFICSY
- percentage of EdU-negative (MCF7; [1]): 26.5 ± 0.76%
- percentage of EdU-negative (MCF7; protein concentration 0.225 µM): 29 ± 0.95%
- percentage of EdU-negative (hTERT-HMEC; [1]): 5.28 ± 0.63%
- percentage of EdU-negative (hTERT-HMEC; protein concentration 0.225 µM): 4.45 ± 0.14%

Sequence: MLLLLLPLLWGRERAEGQTSKLLTMQSSVTVQEGLCVHVPCSFSYPSHGWIYPGPVVHGYWFREGANTDQDAPVATNNPARAVWEETRDRFHLLGDPHTKNCTLSIRDARRSDAGRYFFRMEKGSIKWNYKHHRLSVNVTALTHRPNILIPGTLESGCPQNLTCSVPWACEQGTPPMISWIGTSVSPLDPSTTRSSVLTLIPQPQDHGTSLTCQVTFPGASVTTNKTVHLNVSYPPQNLTMTVFQGDGTVSTVLGNGSSLSLPEGQSLRLVCAVDAVDSNPPARLSLSWRGLTLCPSQPSNPGVLELPWVHLRDAAEFTCRAQNPLGSQQVYLNVSLQSKATSGVTQGVVGGAGATALVFLSFCVIFVVVRSCRKKSARPAAGVGDTGIEDANAVRGSASQGPLTEPWAEDSPPDQPPPASARSSVGEGELQYASLSFQMVKPWDSRGQEATDTEYSEIKIHR [Q9Y336]
- percentage of EdU-negative (MCF7; [1]): 26.3 ± 0.23%
- percentage of EdU-negative (MCF7; protein concentration 0.225 µM): 30.4 ± 0.4%
- percentage of EdU-negative (hTERT-HMEC; [1]): 5.01 ± 0.61%
- percentage of EdU-negative (hTERT-HMEC; protein concentration 0.225 µM): 4.21 ± 0.26%

Sequence: MEQWDHFHNQQEDTDSCSESVKFDARSMTALLPPNPKNSPSLQEKLKSFKAALIALYLLVFAVLIPLIGIVAAQLLKWETKNCSVSSTNANDITQSLTGKGNDSEEEMRFQEVFMEHMSNMEKRIQHILDMEANLMDTEHFQNFSMTTDQRFNDILLQLSTLFSSVQGHGNAIDEISKSLISLNTTLLDLQLNIENLNGKIQENTFKQQEEISKLEERVYNVSAEIMAMKEEQVHLEQEIKGEVKVLNNITNDLRLKDWEHSQTLRNITLIQGPPGPPGEKGDRGPTGESGPRGFPGPIGPPGLKGDRGAIGFPGSRGLPGYAGRPGNSGPKGQKGEKGSGNTLTPFTKVRLVGGSGPHEGRVEILHSGQWGTICDDRWEVRVGQVVCRSLGYPGVQAVHKAAHFGQGTGPIWLNEVFCFGRESSIEECKIRQWGTRACSHSEDAGVTCTL
- percentage of EdU-negative (MCF7; [1]): 27.3 ± 1.6%
- percentage of EdU-negative (MCF7; protein concentration 0.225 µM): 25.4 ± 1.7%
- percentage of EdU-negative (hTERT-HMEC; [1]): 5.16 ± 0.032%
- percentage of EdU-negative (hTERT-HMEC; protein concentration 0.225 µM): 5.23 ± 1.7%

Sequence: MAALSRALGPLRTPAPPLWIGLFLVATGSQQSLAQPLPGNTTEATPRSLRASGSLCGPHAKAPYLCEATHEPAAARIRAQVPDTRWSRVGGQRFYSRVLSPLHRGPSGHTEASAQRSHMGKLKEPQPQDHKPGLGAS [Q6UXU0]
- percentage of EdU-negative (MCF7; [1]): 27.9 ± 0.64%
- percentage of EdU-negative (MCF7; protein concentration 0.225 µM): 23.7 ± 2.8%
- percentage of EdU-negative (hTERT-HMEC; [1]): 5.38 ± 0.31%
- percentage of EdU-negative (hTERT-HMEC; protein concentration 0.225 µM): 5.92 ± 0.84%
